Test results published in PMC8928223, “The Collagen Receptor Discoidin Domain Receptor 1b Enhances Integrin β1-Mediated Cell Migration by Interacting With Talin and Promoting Rac1 Activation” (Frontiers in Cell and Developmental Biology, 2022).
Each block holds one binder with its values, some of them ahead of it.

How the values were obtained:
[1] = molecular target: T1, talin head domain (THD, a. a. 1-433), HIS-tagged (UniProt P26039 1-433); assay: ELISA
T1 chain: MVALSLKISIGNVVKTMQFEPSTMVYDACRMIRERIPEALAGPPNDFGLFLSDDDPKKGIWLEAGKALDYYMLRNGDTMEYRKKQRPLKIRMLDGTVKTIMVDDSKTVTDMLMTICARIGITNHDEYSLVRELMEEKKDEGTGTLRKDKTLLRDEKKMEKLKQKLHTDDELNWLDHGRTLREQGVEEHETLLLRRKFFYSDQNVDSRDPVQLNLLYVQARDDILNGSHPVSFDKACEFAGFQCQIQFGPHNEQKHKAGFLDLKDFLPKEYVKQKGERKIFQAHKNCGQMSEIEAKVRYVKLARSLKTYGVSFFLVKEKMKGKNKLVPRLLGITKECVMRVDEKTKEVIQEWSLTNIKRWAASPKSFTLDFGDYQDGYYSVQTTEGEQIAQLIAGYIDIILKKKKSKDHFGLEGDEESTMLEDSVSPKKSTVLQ

[2] = molecular target: T2, DDR1b-Turbo containing a Flag tag (human, UniProt Q08345-1 19-913); assay: proximity labelling; BioID with turbo-Flag fused to DDR1 in HEK cells plated on collagen I (30 µg/ml) for 1-3 h with 50 µM biotin; streptavidin-agarose pull-down of the lysate and Western blot; settings: partners not purified
T2 construct: Discoidin domain receptor 1, isoform DDR1b, human, fused to the biotin ligase turbo-Flag as bait for BioID; construct described in Borza et al., 2021; source: HEK 293, stably transfected, in live cells and lysate

Kd [1]: 220 nM
B1: DDR1a cytoplasmic domain (domain or fragment)
chain: WRLHWRRLLSKAERRVLEEELTVHLSVPGDTILINNRPGPREPPPYQEPRPRGNPPHSAPCVPNGSAYSGDYMEPEKPGAPLLPPPPQNSVPHYAEADIVTLQGVTGGNTYAVPALPPGAVGDGPPRVDFPRSRLRFKEKLGEGQFGEVHLCEVDSPQDLVSLDFPLNVRKGHPLLVAVKILRPDATKNARNDFLKEVKIMSRLKDPNIIRLLGVCVQDDPLCMITDYMENGDLNQFLSAHQLEDKAAEGAPGDGQAAQGPTISYPMLLHVAAQIASGMRYLATLNFVHRDLATRNCLVGENFTIKIADFGMSRNLYAGDYYRVQGRAVLPIRWMAWECILMGKFTTASDVWAFGVTLWEVLMLCRAQPFGQLTDEQVIENAGEFFRDQGRQVYLSRPPACPQGLYELMLRCWSRESEQRPPFSQLHRFLAEDALNTV

Kd [1]: 96.5 nM
B2: DDR1b cytoplasmic domain (domain or fragment)
chain: WRLHWRRLLSKAERRVLEEELTVHLSVPGDTILINNRPGPREPPPYQEPRPRGNPPHSAPCVPNGSALLLSNPAYRLLLATYARPPRGPGPPTPAWAKPTNTQAYSGDYMEPEKPGAPLLPPPPQNSVPHYAEADIVTLQGVTGGNTYAVPALPPGAVGDGPPRVDFPRSRLRFKEKLGEGQFGEVHLCEVDSPQDLVSLDFPLNVRKGHPLLVAVKILRPDATKNARNDFLKEVKIMSRLKDPNIIRLLGVCVQDDPLCMITDYMENGDLNQFLSAHQLEDKAAEGAPGDGQAAQGPTISYPMLLHVAAQIASGMRYLATLNFVHRDLATRNCLVGENFTIKIADFGMSRNLYAGDYYRVQGRAVLPIRWMAWECILMGKFTTASDVWAFGVTLWEVLMLCRAQPFGQLTDEQVIENAGEFFRDQGRQVYLSRPPACPQGLYELMLRCWSRESEQRPPFSQLHRFLAEDALNTV

fold increase in biotinylated BCR against DDR1a-expressing cells [2]: 2.92 ± 1.42 fold
B3: Breakpoint cluster region protein (BCR) (natural protein, human (endogenous in HEK 293), UniProt P11274 1-1271, looked up)
chain: MVDPVGFAEAWKAQFPDSEPPRMELRSVGDIEQELERCKASIRRLEQEVNQERFRMIYLQTLLAKEKKSYDRQRWGFRRAAQAPDGASEPRASASRPQPAPADGADPPPAEEPEARPDGEGSPGKARPGTARRPGAAASGERDDRGPPASVAALRSNFERIRKGHGQPGADAEKPFYVNVEFHHERGLVKVNDKEVSDRISSLGSQAMQMERKKSQHGAGSSVGDASRPPYRGRSSESSCGVDGDYEDAELNPRFLKDNLIDANGGSRPPWPPLEYQPYQSIYVGGMMEGEGKGPLLRSQSTSEQEKRLTWPRRSYSPRSFEDCGGGYTPDCSSNENLTSSEEDFSSGQSSRVSPSPTTYRMFRDKSRSPSQNSQQSFDSSSPPTPQCHKRHRHCPVVVSEATIVGVRKTGQIWPNDGEGAFHGDADGSFGTPPGYGCAADRAEEQRRHQDGLPYIDDSPSSSPHLSSKGRGSRDALVSGALESTKASELDLEKGLEMRKWVLSGILASEETYLSHLEALLLPMKPLKAAATTSQPVLTSQQIETIFFKVPELYEIHKEFYDGLFPRVQQWSHQQRVGDLFQKLASQLGVYRAFVDNYGVAMEMAEKCCQANAQFAEISENLRARSNKDAKDPTTKNSLETLLYKPVDRVTRSTLVLHDLLKHTPASHPDHPLLQDALRISQNFLSSINEEITPRRQSMTVKKGEHRQLLKDSFMVELVEGARKLRHVFLFTDLLLCTKLKKQSGGKTQQYDCKWYIPLTDLSFQMVDELEAVPNIPLVPDEELDALKIKISQIKNDIQREKRANKGSKATERLKKKLSEQESLLLLMSPSMAFRVHSRNGKSYTFLISSDYERAEWRENIREQQKKCFRSFSLTSVELQMLTNSCVKLQTVHSIPLTINKEDDESPGLYGFLNVIVHSATGFKQSSNLYCTLEVDSFGYFVNKAKTRVYRDTAEPNWNEEFEIELEGSQTLRILCYEKCYNKTKIPKEDGESTDRLMGKGQVQLDPQALQDRDWQRTVIAMNGIEVKLSVKFNSREFSLKRMPSRKQTGVFGVKIAVVTKRERSKVPYIVRQCVEEIERRGMEEVGIYRVSGVATDIQALKAAFDVNNKDVSVMMSEMDVNAIAGTLKLYFRELPEPLFTDEFYPNFAEGIALSDPVAKESCMLNLLLSLPEANLLTFLFLLDHLKRVAEKEAVNKMSLHNLATVFGPTLLRPSEKESKLPANPSQPITMTDSWSLEVMSQVQVLLYFLQLEAIPAPDSKRQSILFSTEV
modifications: biotinylated by the turbo ligase in cells
notes: Breakpoint cluster region protein, in HEK 293 cells, detected with an anti-BCR antibody after streptavidin pull-down; source: endogenous, HEK 293 cells, in lysate
